Assay results taken from patent publication US20250353921A1 (ASTRIA THERAPEUTICS, published 2025).
Substitutions are numbered along the chain they refer to. Numbers in names are those of the source. Where “and” joins values, the source holds several entries; their conditions need not be identical. Equal values may be shown once.

Experiments:
[1] = biological target: T1, human OX40-CRD-avi-his (human, UniProt P43489 29-170, limits assumed); assay: SPR Biacore T200, ratio of KD values
T1 construct: Only the CRD region of the ECD was used
T1 sequence: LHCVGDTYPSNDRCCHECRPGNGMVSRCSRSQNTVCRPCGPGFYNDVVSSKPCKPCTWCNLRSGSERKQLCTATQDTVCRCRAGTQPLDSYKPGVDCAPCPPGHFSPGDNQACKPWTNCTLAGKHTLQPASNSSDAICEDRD

[2] = biological target: T2, cynomolgus OX40-ECD-his (cynomolgus); assay: SPR Biacore T200, ratio of KD values
T2 construct: extracellular domain; also called Cyno OX40

[3] = biological target: T3, human OX40 (TNFRSF4, CD134) on cells (human, UniProt P43489 29-277); assay: flow cytometry on OX40-expressing HPB-ALL cells; cells pre-incubated with cold MAB1, washed, then stained with a single dose of the competitor GBR 830-AF647
T3 construct: also called OX40 on HPB-ALL cells; Jurkat-NFκB-OX40 cells
T3 sequence: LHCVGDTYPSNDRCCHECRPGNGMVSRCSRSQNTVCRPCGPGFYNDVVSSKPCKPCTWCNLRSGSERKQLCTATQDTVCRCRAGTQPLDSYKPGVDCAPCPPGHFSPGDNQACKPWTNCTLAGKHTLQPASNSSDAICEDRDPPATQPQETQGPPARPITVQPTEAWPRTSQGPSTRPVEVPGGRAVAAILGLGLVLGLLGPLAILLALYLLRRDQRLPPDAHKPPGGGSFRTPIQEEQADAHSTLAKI

[4] = biological target: T2, cynomolgus OX40-ECD-his; assay: SPR, affinity for the extracellular domain (ECD) of cynomolgus monkey OX40
[5] = biological target: T1, human OX40-CRD-avi-his; assay: SPR, affinity for the extracellular domain (ECD) of human OX40; lower end of the range
[6] = biological target: T3, human OX40 (TNFRSF4, CD134) on cells; assay: flow cytometry on OX40-expressing HPB-ALL cells; cells pre-incubated with cold GBR 830, washed, then stained with a single dose of the competitor MAB1-AF647
[7] = biological target: Human CD64 (FcγRI), Sino Biological 10256-H08H (human, UniProt P12314 16-288); assay: SPR Biacore 8K+, ratio of KD values
Chain of Human CD64 (FcγRI), Sino Biological 10256-H08H (P12314 16-288 limits assumed): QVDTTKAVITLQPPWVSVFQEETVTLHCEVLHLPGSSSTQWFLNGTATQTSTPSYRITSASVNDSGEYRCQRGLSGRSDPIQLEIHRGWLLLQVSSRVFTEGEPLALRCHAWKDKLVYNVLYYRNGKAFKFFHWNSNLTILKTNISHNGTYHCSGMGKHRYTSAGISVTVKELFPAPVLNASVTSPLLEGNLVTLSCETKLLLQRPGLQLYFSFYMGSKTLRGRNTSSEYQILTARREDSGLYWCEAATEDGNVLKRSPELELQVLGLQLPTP

[8] = biological target: T4, Human CD16a (176F), Sino Biological 10389-H08H (human, UniProt P08637 17-208); assay: SPR Biacore 8K+, ratio of KD values
T4 construct: also called FcγRIIIa176F
T4 sequence (P08637 17-208 limits assumed): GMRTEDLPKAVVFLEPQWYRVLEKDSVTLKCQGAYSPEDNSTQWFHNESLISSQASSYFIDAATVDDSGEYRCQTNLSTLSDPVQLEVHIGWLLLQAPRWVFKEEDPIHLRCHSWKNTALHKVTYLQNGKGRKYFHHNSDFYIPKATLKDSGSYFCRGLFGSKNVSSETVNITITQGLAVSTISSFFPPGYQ

[9] = biological target: T5, Human CD16a (F176V), Sino Biological 10389-H08H1 (human, UniProt P08637 17-208); assay: SPR Biacore 8K+, ratio of KD values
T5 construct: also called FcγRIIIa176V
T5 sequence (P08637 17-208 F176V limits assumed): as the sequence (P08637 17-208 limits assumed) above, with F160V counted along it

[10] = biological target: T6, Human CD16b (NA2 allotype), Sino Biological 11046-H08H (human, UniProt O75015 17-200); assay: SPR Biacore 8K+, ratio of KD values
T6 construct: also called FcγRIIIb
T6 sequence (O75015 17-200 N65S limits assumed): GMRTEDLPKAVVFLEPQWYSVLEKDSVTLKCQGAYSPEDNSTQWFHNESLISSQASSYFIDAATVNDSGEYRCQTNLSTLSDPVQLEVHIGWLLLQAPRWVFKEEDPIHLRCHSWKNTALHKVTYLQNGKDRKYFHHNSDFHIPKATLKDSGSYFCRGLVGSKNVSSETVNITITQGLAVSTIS

[11] = biological target: T7, Human CD32a (167 His), Sino Biological 10374-H08H1 (human, UniProt P12318 34-218); assay: SPR Biacore 8K+, ratio of KD values
T7 construct: also called FcγRIIa167H
T7 sequence (looked up): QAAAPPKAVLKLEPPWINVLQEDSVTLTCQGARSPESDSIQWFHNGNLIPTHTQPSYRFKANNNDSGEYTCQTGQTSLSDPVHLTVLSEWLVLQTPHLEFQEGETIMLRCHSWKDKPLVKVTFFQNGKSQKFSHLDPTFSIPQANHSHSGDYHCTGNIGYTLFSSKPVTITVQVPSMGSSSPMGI

[12] = biological target: cynomolgus monkey (cy) OX40 protein (Example 5) (cynomolgus monkey); assay: ELISA on coated OX40, ratio of EC50 values
[13] = biological target: T8, rabbit (rb) OX40 protein (rabbit); assay: ELISA on coated OX40, ratio of EC50 values
T8 construct: also called Rabbit OX40

[14] = biological target: T9, rat (ra) OX40 protein (rat, UniProt P15725 20-210, limits assumed); assay: SPR single cycle kinetics, MAB10 captured
T9 construct: also called Rat OX40
T9 sequence (looked up): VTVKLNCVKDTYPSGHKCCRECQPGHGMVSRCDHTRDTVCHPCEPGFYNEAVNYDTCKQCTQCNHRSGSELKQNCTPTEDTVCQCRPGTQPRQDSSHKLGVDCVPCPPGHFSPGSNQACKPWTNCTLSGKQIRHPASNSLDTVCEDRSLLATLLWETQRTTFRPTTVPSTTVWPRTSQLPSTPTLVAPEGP

[15] = biological target: T10, Human FcRn protein (Acro Biosystems, catalog NO: FCN-H52W7) (human, UniProt P55899 24-297; P61769 21-119); assay: SPR Biacore 8K+, antibody immobilised, FcRn analyte, pH 6.0; pH 6.0; ratio of the KD of MAB1 to that of MAB10
T10 construct: also called huFcRn
T10 sequence (P55899 24-297 limits assumed, chain 1 of 2): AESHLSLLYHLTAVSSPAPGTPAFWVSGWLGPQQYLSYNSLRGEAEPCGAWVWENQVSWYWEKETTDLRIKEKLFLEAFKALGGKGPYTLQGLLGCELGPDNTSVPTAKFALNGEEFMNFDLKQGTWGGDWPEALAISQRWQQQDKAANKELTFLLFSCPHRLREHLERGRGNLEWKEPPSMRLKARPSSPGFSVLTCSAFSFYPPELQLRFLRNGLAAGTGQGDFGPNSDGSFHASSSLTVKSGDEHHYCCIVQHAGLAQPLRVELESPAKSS
T10 sequence (P61769 21-119 limits assumed, chain 2 of 2): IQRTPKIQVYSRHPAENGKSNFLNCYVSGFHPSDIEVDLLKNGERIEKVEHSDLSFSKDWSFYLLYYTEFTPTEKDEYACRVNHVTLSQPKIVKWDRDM

B1: MAB1 IgG1 (antibody)
heavy: not shown
light: EIVLTQSPATLSLSPGERATLSCRASSSVSYMHWYQQKPGQAPRPWIYATSNRATGIPARFSGSGSGTDYTLTISSLEPEDFAVYYCQQFGAWPWTFGQGTKVEIKRTVAAPSVFIFPPSDEQLKSGTASVVCLLNNFYPREAKVQWKVDNALQSGNSQESVTEQDSKDSTYSLSSTLTLSKADYEKHKVYACEVTHQGLSSPVTKSFNRGEC
notes: Human IgG1, kappa
In the case of B1, the “fold increase in affinity (KD GBR 830 / KD MAB1)” value [1] is reported as 13.4 fold, the “fold increase in affinity (KD GBR 830 / KD MAB1)” value [2] is reported as 5.5 fold and the “IC50 (read off the curve)” value [3] is reported as ~0.02 µg/mL.

B2: GBR 830 (telazorlimab) (antibody, human IgG1, kappa)
heavy: not shown
light: B1 light with F90W, G91S, A92S, W93N
notes: IgG1; also called Antibody 830; ISB830
For B2, the Kd [4] was 5000 nM and 3000 nM, the Kd [5] was 80 nM and the “IC50 (read off the curve)” value [6] was ~0.2 µg/mL.

B3: MAB10 (antibody, human IgG1, kappa)
heavy: QVTLKESGPALVKPTQTLTLTCSFSGFSLSTSGMGVGWIRQPPGKALEWIAHIWWDDDKYYNTALKTRLTISKDTSKNQVVLTMTNMDPVDTATYYCARIDWDGFAYWGQGTLVTVSSASTKGPSVFPLAPSSKSTSGGTAALGCLVKDYFPEPVTVSWNSGALTSGVHTFPAVLQSSGLYSLSSVVTVPSSSLGTQTYICNVNHKPSNTKVDKKVEPKSCDKTHTCPPCPAPELLGGPSVFLFPPKPKDTLYITREPEVTCVVVDVSHEDPEVKFNWYVDGVEVHNAKTKPREEQYNSTYRVVSVLTVLHQDWLNGKEYKCKVSNKALPAPIEKTISKAKGQPREPQVYTLPPSRDELTKNQVSLTCLVKGFYPSDIAVEWESNGQPENNYKTTPPVLDSDGSFFLYSKLTVDKSRWQQGNVFSCSVMHEALHNHYTQKSLSLSPGK
light: B1 light
notes: MAB1 with M252Y, S254T and T256E (EU numbering) in the IgG1 Fc; also called MAB1 Heavy Chain + YTE
With B3 the “fold-change of KD relative to MAB1” value [7] was 1.6 fold, the “fold-change of KD relative to MAB1” value [8] was 3 fold and the “fold-change of KD relative to MAB1” value [9] was 2.7 fold. The “fold-change of KD relative to MAB1” value [10] was 4.3 fold, the “fold-change of KD relative to MAB1” value [11] was 3.1 fold and the “fold EC50 against human OX40” value [12] was 4 fold. For the same binder, the “fold EC50 against human OX40” value [13] was 8 fold, the binding result [14] was “no binding” and the “fold increase of the binding constant against MAB1” value [15] was 8.8 fold.
